Consider seven molecules from paper PMC1851640.

The target in one data set is T1, StpA (Escherichia coli) (UniProt P0ACG1).
T1 sequence: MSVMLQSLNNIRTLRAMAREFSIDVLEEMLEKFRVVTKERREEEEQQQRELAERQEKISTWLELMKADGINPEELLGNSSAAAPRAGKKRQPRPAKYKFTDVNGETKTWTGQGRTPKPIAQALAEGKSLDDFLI
Nature of the data set: filter binding.

Data set [1] has as its system G126V-StpA (Escherichia coli). Put plainly: filter binding.
For data set [2], the target named is T2, StpA (Escherichia coli, UniProt P0ACG1 1-134).
T2 sequence: T1 sequence
Put plainly: filter binding.

Data set [3] concerns the target T2, StpA. Put plainly: FRET.
Data set [4] has as its target T2, StpA. Put plainly: filter binding. The source holds these as a separate data set.

td ribozyme RNA came in with a binding signal with StpA (Escherichia coli) of 70 % bound.
On to sho-sho tdC865U pre-mRNA, for which the figures for the binding signal (in data set [1]; with StpA (Escherichia coli)) were 7 % bound and 27 % bound, respectively.
A word on the Kd: it is the concentration at which binding is half-saturated. Higher therefore signals a looser complex. Consider td mRNA (intronless), for which the Kd with StpA (Escherichia coli) was found to be 580 nM. This counts as sub-micromolar.
With sho-sho td pre-mRNA, in the data set with StpA (Escherichia coli), the dissociation constant Kd was found to be 730 nM and the binding signal is 17 % bound.

B1: 21R+/21R- duplex (dsRNA)
RNA 1: AUGUGGAAAAUCUCUAGCAGU
RNA 2: ACUGCUAGAGAUUUUCCACAU
B1: the binding result in the data set with StpA [2] is “no binding”.

B2: 21R+ and duplex- (non-complementary pair) (ssRNA)
RNA 1: AUGUGGAAAAUCUCUAGCAGU
RNA 2: CUUUCAUUGGUCGGUCUCUCC
As to B2, the binding result with StpA [3] is on record as “binds”.

B3: 21R+ (ssRNA)
RNA: AUGUGGAAAAUCUCUAGCAGU
For B3, the binding result with StpA [4] is recorded as “binds”.
